Reference: US20260235581A1, “METHOD FOR THE SELECTION OF AN ECOBIOLOGICAL COMPOUND CAPABLE OF INCREASING THE SKIN TOLERANCE THRESHOLD” (NAOS INSTITUTE OF LIFE SCIENCE, priority 2023, published 2026)

Test system: TAFA4
Experiment: TAFA4 synthesis in normal human keratinocyte culture supernatant, dot blot
Assay type: cell-based
Conditions: 72 hours of incubation, EGF 30 ng/ml, versus KGM medium control set to 100%, statistically significant
Protocol: Normal human keratinocytes (NHK) have been used in this study. They come from Promocell (Germany). The cells are seeded at 100,000 cells/well in the 24-well plates in KGM. After 24 hours, the cells are incubated with the compound shown in the table below in KBM+P/S medium at 37° C., 5% CO2.
After 72 hours of incubation, the supernatants and protein extracts (obtained from the cell layer) were recovered and stored at −80° C.
After 72 hours of incubation at 37° C., 5% CO2, the supernatants and protein extracts (obtained from the cell layer) are recovered and stored at −80° C.
Before assaying the TAFA4 protein, an evaluation of the toxicity of the compounds is performed using the MTT test. Only the concentrations making it possible to obtain a viability greater than 80% are selected to be quantified by ELISA and dot blot.
The results are expressed as a percentage of TAFA4 expression by standardising the control to 100% (KGM medium control). The data have been obtained from an independent experiment carried out in triplicate.

B1: EGF: epidermal growth factor protein, AF-100-15, Peprotech (protein, UniProt P01133 23-1207, looked up)
Pro-epidermal growth factor: PQHWSCPEGTLAGNGNSTCVGPAPFLIFSHGNSIFRIDTEGTNYEQLVVDAGVSVIMDFHYNEKRIYWVDLERQLLQRVFLNGSRQERVCNIEKNVSGMAINWINEEVIWSNQQEGIITVTDMKGNNSHILLSALKYPANVAVDPVERFIFWSSEVAGSLYRADLDGVGVKALLETSEKITAVSLDVLDKRLFWIQYNREGSNSLICSCDYDGGSVHISKHPTQHNLFAMSLFGDRIFYSTWKMKTIWIANKHTGKDMVRINLHSSFVPLGELKVVHPLAQPKAEDDTWEPEQKLCKLRKGNCSSTVCGQDLQSHLCMCAEGYALSRDRKYCEDVNECAFWNHGCTLGCKNTPGSYYCTCPVGFVLLPDGKRCHQLVSCPRNVSECSHDCVLTSEGPLCFCPEGSVLERDGKTCSGCSSPDNGGCSQLCVPLSPVSWECDCFPGYDLQLDEKSCAASGPQPFLLFANSQDIRHMHFDGTDYGTLLSQQMGMVYALDHDPVENKIYFAHTALKWIERANMDGSQRERLIEEGVDVPEGLAVDWIGRRFYWTDRGKSLIGRSDLNGKRSKIITKENISQPRGIAVHPMAKRLFWTDTGINPRIESSSLQGLGRLVIASSDLIWPSGITIDFLTDKLYWCDAKQSVIEMANLDGSKRRRLTQNDVGHPFAVAVFEDYVWFSDWAMPSVMRVNKRTGKDRVRLQGSMLKPSSLVVVHPLAKPGADPCLYQNGGCEHICKKRLGTAWCSCREGFMKASDGKTCLALDGHQLLAGGEVDLKNQVTPLDILSKTRVSEDNITESQHMLVAEIMVSDQDDCAPVGCSMYARCISEGEDATCQCLKGFAGDGKLCSDIDECEMGVPVCPPASSKCINTEGGYVCRCSEGYQGDGIHCLDIDECQLGEHSCGENASCTNTEGGYTCMCAGRLSEPGLICPDSTPPPHLREDDHHYSVRNSDSECPLSHDGYCLHDGVCMYIEALDKYACNCVVGYIGERCQYRDLKWWELRHAGHGQQQKVIVVAVCVVVLVMLLLLSLWGAHYYRTQKLLSKNPKNPYEESSRDVRSRRPADTEDGMSSCPQPWFVVIKEHQDLKNGGQPVAGEDGQAADGSMQPTSWRQEPQLCGMGTEQGCWIPVSSDKGSCPQVMERSFHMPSYGTQTLEGGVEKPHSLLSANPLWQQRALDPPHQMELTQ
modifications: Pro-epidermal growth factor
notes: epidermal growth factor protein, AF-100-15, Peprotech
effect on the synthesis of TAFA4 (modulation of TAFA4 in the NHK supernatant): inhibits the synthesis of TAFA4
